Measured values: article PMC3480987 (Molecular microbiology, 2012)
Like-named read-outs stand apart in the source and are kept apart here.

Key:
BLI [1] = biological target: the molecule itself; experiment: BLI
BLI [2] = biological target: the molecule itself; experiment: BLI; remark: listed apart in the source
[3] = biological target: the molecule itself; experiment: sucrose density gradient centrifugation + SEC

Row | Protein | Kd (BLI [1]) | Kd (BLI [2]) | stoichiometry N [3]
1 | Thioredoxin-UgtP fusion protein (wild type) (enzyme, B. subtilis, UniProt P54166 1-382, looked up, biotin on the copy immobilised on the biosensor (site not stated)) MNTNKRVLILTANYGNGHVQVAKTLYEQCVRLGFQHVTVSNLYQESNPIVSEVTQYLYLKSFSIGKQFYRLFYYGVDKIYNKRKFNIYFKMGNKRLGELVDEHQPDIIINTFPMIVVPEYRRRTGRVIPTFNVMTDFCLHKIWVHENVDKYYVATDYVKEKLLEIGTHPSNVKITGIPIRPQFEESMPVGPIYKKYNLSPNKKVLLIMAGAHGVLKNVKELCENLVKDDQVQVVVVCGKNTALKESLSALEAENGDKLKVLGYVERIDELFRITDCMITKPGGITLTEATAIGVPVILYKPVPGQEKENANFFEDRGAAIVVNRHEEILESVTSLLADEDTLHRMKKNIKDLHLANSSEVILEDILKESEMMTAKQKAKVLS | 69 nM | 17 nM | ~8.8 monomers
2 | UgtP (F112A V117A E306A N309A) (enzyme, B. subtilis, UniProt P54166 1-382, looked up, biotin on the copy immobilised on the biosensor (site not stated)) MNTNKRVLILTANYGNGHVQVAKTLYEQCVRLGFQHVTVSNLYQESNPIVSEVTQYLYLKSFSIGKQFYRLFYYGVDKIYNKRKFNIYFKMGNKRLGELVDEHQPDIIINTAPMIVAPEYRRRTGRVIPTFNVMTDFCLHKIWVHENVDKYYVATDYVKEKLLEIGTHPSNVKITGIPIRPQFEESMPVGPIYKKYNLSPNKKVLLIMAGAHGVLKNVKELCENLVKDDQVQVVVVCGKNTALKESLSALEAENGDKLKVLGYVERIDELFRITDCMITKPGGITLTEATAIGVPVILYKPVPGQAKEAANFFEDRGAAIVVNRHEEILESVTSLLADEDTLHRMKKNIKDLHLANSSEVILEDILKESEMMTAKQKAKVLS | 21 nM | 16 nM | 
